Data reported in patent publication US20200023070A1, “CONJUGATES COMPRISING AN GLP-1/GLUCAGON/GIP TRIPLE RECEPTOR AGONIST, A LINKER AND HYALURONIC ACID” (SANOFI, priority 2018, published 2020).
Starred links: 1 amine or outer side, 2 acyl side, 3 side chain; linkers in the order of their positions; H or OH if unused. Non-standard residues stand in square brackets, D forms with d. Groups on a side chain read outwards from the residue. No end group written: not given here. *: point of attachment. γGlu = O=C(O)[C@H](CCC(=O)[*:2])N[*:1]; Palmitoyl = CCCCCCCCCCCCCCCC(=O)*; Aib = CC(C)(N)C(=O)O

Key:
[1] = tested on: female diet-induced obese (DIO) C57BL/6N mice; assay: Body mass after subcutaneous treatment in female diet-induced obese mice; format: in vivo, mouse; settings: for mean body weight reduction by day 23 versus the body weight at day 0: days 1, 8, 15, 22, female DIO mice
Description: Female C57BL/6N Cr1 mice were used for this study.
Mice were group housed under vivarium conditions that included a 12 h light/dark cycle, room temperatures—of 23±1° C. and a relative humidity between 30-70%. All animals had free access to water and diet (Ssniff adjusted high fat diet: TD.97366) for 18 weeks prior to pharmacological intervention (dosing phase). After pre-feeding period, mice were stratified for body weight to treatment groups with n=8, so that each group has similar mean body weight. At the study start mice were between 25-26 weeks old.
Mice were treated in the morning on days 1, 8, 15 and 22 between 8:00 and 9:00 AM with a s.c. injection of cross-linked hyaluronic acid (“vehicle”) or 100 and 200 nmol/kg/week conjugate (based on peptide content) of SEQ ID NO: 7 using a 30 G needle.
Body weight and food consumption were measured daily throughout the dosing phase. The study was terminated on day 23.
For statistical analyses a One-Way Analysis of Variance (ANOVA) was performed with SigmaStat 3.5. The power of the performed test was alpha=0.050:0.999 and a comparison versus the high fat diet-Vehicle group was performed with Dunnett's Method.

[2] = Pharmacokinetics in female SD rats; format: in vivo, Sprague-Dawley rats
Description: 5 female Sprague-Dawley rats were used in this study. Animals had access to food and water ad libitum throughout the entire study period. The animals were dosed with 1.01 mg/kg (peptide content) of a suspension of the conjugate of Seq ID. No.7. Plasma samples were taken at 4, 24, 48, 72, 144, 192, 240 and 336 h. Samples were analysed for the peptide. All quantitative results were determined by LC-MS/MS. For calculation of mean concentrations, values below the lower limit of quantification (LLOQ=2.5 ng/mL in plasma) were set to zero. The pharmacokinetic parameters were calculated by the program WinNonlin 6.4 using a non-compartmental model and linear trapezoidal interpolation calculation.

[3] = Pharmacokinetics in female Göttingen minipigs; format: in vivo; settings: for half-life in plasma: after subcutaneous administration
Description: 6 female Göttingen minipigs of average 30000 g weight were used in this study.
Animals had access to food and water ad libitum throughout the entire study period. The animals were dosed with 0.23 mg/kg of a 17.6% suspension of HA-Aib-linker-Seq ID. No.7. Plasma samples were taken at 0, 1, 4, 8, 24, 48, 72, 96, 144, 192, 264, 312, 360, 432, 480 and 528 h. Samples were analysed for the peptide. All quantitative results were determined by LC-MS/MS. For calculation of mean concentrations, values below the lower limit of quantification (LLOQ=0.5 ng/mL in plasma) were set to zero. The pharmacokinetic parameters were calculated by the program WinNonlin 6.4 using a non-compartmental model and linear trapezoidal interpolation calculation.

[4] = Injectability study (load on pre-filled syringe); format: physicochemical; settings: 20 mg/mL suspension, 13.5% peptide load, 1 mL BD Neopak PFS, needle 27G×½″ TW, 3.2 mm/s
Description: A suspension of HA-peptide conjugate with Seq. ID No. 7 (20 mg/mL in 20 mM acetate buffer, 7.6 mg/mL NaCl, 4 mg/mL soluble (non crosslinked) hyaluronic acid 700 kD, pH 4.8) was manually filled into 1 mL long BD Neopak glass pre-filled syringes (PFS), 600 μL each, and afterwards closed via vacuum stoppering. The filled PFS were loaded into the syringe holder of the equipment and the injection speed was adjusted to […] which equals 3.2 mm/s for the BD Neopak PFS.

human GLP-1 receptor = human GLP-1 receptor (human, UniProt P43220 24-463); assay: cell-based or functional assay
human glucagon receptor = human glucagon receptor (human, UniProt P47871 26-477); assay: cell-based or functional assay
human GIP receptor = target: T1, human GIP receptor (human, UniProt P48546 22-466); assay: cell-based or functional assay
T1 sequence (looked up): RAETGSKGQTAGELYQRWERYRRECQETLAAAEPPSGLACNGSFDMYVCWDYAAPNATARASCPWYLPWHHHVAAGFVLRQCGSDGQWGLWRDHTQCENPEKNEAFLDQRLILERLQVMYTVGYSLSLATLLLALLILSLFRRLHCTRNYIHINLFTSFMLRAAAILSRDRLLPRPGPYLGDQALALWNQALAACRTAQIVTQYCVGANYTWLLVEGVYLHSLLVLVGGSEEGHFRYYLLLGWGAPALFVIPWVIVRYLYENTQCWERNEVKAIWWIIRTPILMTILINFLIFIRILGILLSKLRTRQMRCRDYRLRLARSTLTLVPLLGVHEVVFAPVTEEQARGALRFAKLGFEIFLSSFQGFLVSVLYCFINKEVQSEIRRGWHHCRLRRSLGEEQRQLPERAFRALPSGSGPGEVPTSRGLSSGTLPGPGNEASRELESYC

[5] = peptide Seq. No. 7 in plasma, single s.c. 1.01 mg/kg (peptide content) conjugate suspension
[6] = peptide Seq. NO: 7 in plasma, single s.c. 0.23 mg/kg of 17.6% conjugate (0.04 mg/kg peptide)

human glucagon receptor, sequence (P47871 26-477): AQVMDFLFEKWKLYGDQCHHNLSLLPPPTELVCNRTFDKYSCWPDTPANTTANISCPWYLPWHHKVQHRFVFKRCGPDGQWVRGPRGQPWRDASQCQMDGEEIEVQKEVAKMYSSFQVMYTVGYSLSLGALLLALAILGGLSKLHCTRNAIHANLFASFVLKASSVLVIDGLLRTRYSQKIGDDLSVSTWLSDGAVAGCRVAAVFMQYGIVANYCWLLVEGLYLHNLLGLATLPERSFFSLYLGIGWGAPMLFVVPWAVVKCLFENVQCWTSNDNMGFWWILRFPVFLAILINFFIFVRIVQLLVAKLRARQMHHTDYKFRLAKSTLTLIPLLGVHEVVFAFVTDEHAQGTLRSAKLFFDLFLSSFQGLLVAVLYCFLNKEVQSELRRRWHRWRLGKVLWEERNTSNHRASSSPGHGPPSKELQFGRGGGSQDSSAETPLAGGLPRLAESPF

conjugate of SEQ ID NO: 7: Divinylsulfone-crosslinked hyaluronic acid hydrogel carrying peptide Seq. ID No. 7 via Aib-linker (thiol-maleimide conjugation) (H[Aib]HGTFTSDLSKLK([γGlu-γGlu-Palmitoyl])EEQRQ[Aib]EFIEWLKA[dA]GPPS[Aib]KPPPK-NH2; also: conjugated to divinylsulfone-crosslinked hyaluronic acid hydrogel via Aib-linker (thiol-maleimide), site not given here)
mean body weight reduction by day 23 versus the body weight at day 0 ([1]; 100 nmol/kg/w s.c. (based on peptide content)): ~17.7±1.3%
mean body weight reduction by day 23 versus the body weight at day 0 ([1]; 200 nmol/kg/w s.c. (based on peptide content)): ~19.5±1.4%
body weight effect of the first administration ([1]; both doses (100 and 200 nmol/kg/week s.c.), p<0.05 vs high-fat diet vehicle): significant body weight-reducing effect that lasted until day 8
half-life in plasma ([2]; after subcutaneous administration, 1.01 mg/kg (peptide content)): around 3 days
AUClast [2, 5]: 1810 ng·h/mL
Cmax [2, 5]: 14.0 ng/mL
tlast [2, 5]: 221 h
tmax [2, 5]: 48.0 h
half-life in plasma [3]: around 139 h
half-life in plasma ([3]; same value as in h): 139 h
AUClast [3, 6]: 897 ng·h/mL
Cmax [3, 6]: 4.96 ng/mL
tlast [3, 6]: 344 h
tmax [3, 6]: 100 h
average load [4]: 6.5 N
maximum load [4]: 7.6 N

B1: Peptide of SEQ ID NO: 7 (GLP-1/Glucagon/GIP triple receptor agonist, exendin-4 derivative) (peptide)
peptide: H[Aib]HGTFTSDLSKLK([γGlu-γGlu-Palmitoyl])EEQRQ[Aib]EFIEWLKA[dA]GPPS[Aib]KPPPK-NH2
modifications: N-terminus assumed
SMILES: CCCCCCCCCCCCCCCC(=O)N[C@@H](CCC(=O)N[C@@H](CCC(=O)NCCCC[C@H](NC(=O)[C@H](CC(C)C)NC(=O)[C@H](CCCCN)NC(=O)[C@H](CO)NC(=O)[C@H](CC(C)C)NC(=O)[C@H](CC(=O)O)NC(=O)[C@H](CO)NC(=O)[C@@H](NC(=O)[C@H](Cc1ccccc1)NC(=O)[C@@H](NC(=O)CNC(=O)[C@H](Cc1c[nH]cn1)NC(=O)C(C)(C)NC(=O)[C@@H](N)Cc1c[nH]cn1)[C@@H](C)O)[C@@H](C)O)C(=O)N[C@@H](CCC(=O)O)C(=O)N[C@@H](CCC(=O)O)C(=O)N[C@@H](CCC(N)=O)C(=O)N[C@@H](CCCNC(=N)N)C(=O)N[C@@H](CCC(N)=O)C(=O)NC(C)(C)C(=O)N[C@@H](CCC(=O)O)C(=O)N[C@@H](Cc1ccccc1)C(=O)N[C@H](C(=O)N[C@@H](CCC(=O)O)C(=O)N[C@@H](Cc1c[nH]c2ccccc12)C(=O)N[C@@H](CC(C)C)C(=O)N[C@@H](CCCCN)C(=O)N[C@@H](C)C(=O)N[C@H](C)C(=O)NCC(=O)N1CCC[C@H]1C(=O)N1CCC[C@H]1C(=O)N[C@@H](CO)C(=O)NC(C)(C)C(=O)N[C@@H](CCCCN)C(=O)N1CCC[C@H]1C(=O)N1CCC[C@H]1C(=O)N1CCC[C@H]1C(=O)N[C@@H](CCCCN)C(N)=O)[C@@H](C)CC)C(=O)O)C(=O)O
EC50 hGLP-1R (cAMP response, HTRF, HEK-293 cells) (human GLP-1 receptor): 2.9 pM
EC50 hGlucagon R (cAMP response, HTRF, HEK-293 cells) (human glucagon receptor): 2.1 pM
EC50 hGlP R (cAMP response, HTRF, HEK-293 cells) (human GIP receptor): 1.5 pM

B2: Peptide of SEQ ID NO: 6 (GLP-1/Glucagon/GIP triple receptor agonist, exendin-4 derivative) (peptide)
peptide: H[Aib]HGTFTSDLSKLK([γGlu-γGlu-Palmitoyl])EEQRQKEFIEWLKAGGHPS[Aib]KPPPK-NH2
modifications: N-terminus assumed
SMILES: CCCCCCCCCCCCCCCC(=O)N[C@@H](CCC(=O)N[C@@H](CCC(=O)NCCCC[C@H](NC(=O)[C@H](CC(C)C)NC(=O)[C@H](CCCCN)NC(=O)[C@H](CO)NC(=O)[C@H](CC(C)C)NC(=O)[C@H](CC(=O)O)NC(=O)[C@H](CO)NC(=O)[C@@H](NC(=O)[C@H](Cc1ccccc1)NC(=O)[C@@H](NC(=O)CNC(=O)[C@H](Cc1c[nH]cn1)NC(=O)C(C)(C)NC(=O)[C@@H](N)Cc1c[nH]cn1)[C@@H](C)O)[C@@H](C)O)C(=O)N[C@@H](CCC(=O)O)C(=O)N[C@@H](CCC(=O)O)C(=O)N[C@@H](CCC(N)=O)C(=O)N[C@@H](CCCNC(=N)N)C(=O)N[C@@H](CCC(N)=O)C(=O)N[C@@H](CCCCN)C(=O)N[C@@H](CCC(=O)O)C(=O)N[C@@H](Cc1ccccc1)C(=O)N[C@H](C(=O)N[C@@H](CCC(=O)O)C(=O)N[C@@H](Cc1c[nH]c2ccccc12)C(=O)N[C@@H](CC(C)C)C(=O)N[C@@H](CCCCN)C(=O)N[C@@H](C)C(=O)NCC(=O)NCC(=O)N[C@@H](Cc1c[nH]cn1)C(=O)N1CCC[C@H]1C(=O)N[C@@H](CO)C(=O)NC(C)(C)C(=O)N[C@@H](CCCCN)C(=O)N1CCC[C@H]1C(=O)N1CCC[C@H]1C(=O)N1CCC[C@H]1C(=O)N[C@@H](CCCCN)C(N)=O)[C@@H](C)CC)C(=O)O)C(=O)O
EC50 hGLP-1R (cAMP response, HTRF, HEK-293 cells) (human GLP-1 receptor): 1.4 pM
EC50 hGlucagon R (cAMP response, HTRF, HEK-293 cells) (human glucagon receptor): 2.3 pM
EC50 hGlP R (cAMP response, HTRF, HEK-293 cells) (human GIP receptor): 2.1 pM
